Laboratory results: US20220041683A1 (published 2022)
Each block holds one binder with its values, some of them ahead of it. Where no end group is shown, it is not given here.

Experiments:
[1] = molecular target: NRP2-b1b2 (275-595) protein (UniProt O60462); assay: SPR; KD on NRP2-b1b2 divided by KD on NRP1-b1b2
[2] = molecular target: NRP1-b1b2 (273-586) protein (UniProt O14786); assay: SPR (Biacore 2000), NRP1-b1b2 immobilised on CM5
[3] = molecular target: NRP2-b1b2 (275-595) protein (UniProt O60462); assay: SPR (Biacore 2000), NRP2-b1b2 immobilised on CM5
[4] = molecular target: NRP1-b1b2 (273-586) protein (UniProt O14786); assay: ELISA on immobilised NRP1-b1b2, reference Fc-TPP11
[5] = molecular target: T1, NRP1 displayed on the human umbilical vein endothelial cell (HUVEC) surface (human, UniProt O14786 22-923); assay: confocal microscopy on HUVEC
T1 construct: whole, on cells; Endogenous NRP1 of human cells; also called NRP1 on the HUVEC cell surface
Method: Specifically, 5×10⁴ HUVEC cells were added to each well of a 24-well plate and incubated in 0.5 ml of EGM2 (Endothelial growth medium, Promocell) medium for 24 hours under the conditions of 5% CO₂ and 37° C. […] Next, the medium was removed, and each well was washed with cold PBS. […] The nucleus was stained (blue fluorescence) with DAPI and analyzed by confocal microscopy.

Chain of NRP2-b1b2 (275-595) protein (O60462 275-595 limits assumed, form in doubt): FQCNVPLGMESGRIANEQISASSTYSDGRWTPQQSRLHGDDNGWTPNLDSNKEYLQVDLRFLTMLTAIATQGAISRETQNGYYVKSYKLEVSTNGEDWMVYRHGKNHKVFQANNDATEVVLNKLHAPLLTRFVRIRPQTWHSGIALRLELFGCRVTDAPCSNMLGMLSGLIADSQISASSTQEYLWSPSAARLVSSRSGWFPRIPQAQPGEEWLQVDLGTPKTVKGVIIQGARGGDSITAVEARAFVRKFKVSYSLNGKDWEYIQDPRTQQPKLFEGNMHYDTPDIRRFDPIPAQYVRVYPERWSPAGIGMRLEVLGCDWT

- Binding Affinity Ratio [(KD for NRP2)/KD for NRP1)] [1]: 65.8
- Kd [2]: 3.85 nM
- Kd [3]: 254 nM
B1: Fc-TPP8 (Fc fusion, not shown: a dimerising Fc or GST; small tags and cut ends)
chain: GGGGSGGGGSGGGGSHTPGIATRTPR
modifications: not fully specified (N-terminus); also: Fc fusion, Fc not in chain, disulfide-linked Fc dimer

- Binding Affinity Ratio [(KD for NRP2)/KD for NRP1)] [1]: 0.98
- Kd [3]: 62 nM
B2: Fc-A22p (Fc fusion, not shown: a dimerising Fc or GST; small tags and cut ends)
chain: HTPGNSNKWKHLQENKKGRPRR
modifications: not fully specified (N-terminus); also: fused C-terminal to Fc (hinge-CH2-CH3), isotype and sequence not given here, linker not given here

- fold lower affinity than Fc-TPP11 [4]: 100 fold
Binder: HTPGNSKPTRTPRR (also: biotinylated for ELISA, position not given here) [synthetic peptide TPP11 not fused to Fc]

- binding result [5]: binds
- Binding Affinity Ratio [(KD for NRP2)/KD for NRP1)] [1]: 625
- Kd [2]: 1.81 nM
- Kd [3]: 1130 nM
B3: Fc-TPP1 (Fc fusion)
chain: GGGGSGGGGSGGGGSHTPGNSNQFVLTSTRPPR
modifications: not fully specified (N-terminus); also: Fc fusion, peptide at end of CH3, Fc not in chain, disulfide-linked Fc dimer
notes: Disulfide-linked dimer, peptide fused to the end of CH3 by a (G4S)3 linker; expressed in HEK293-F; also called Fc-TPP1 fusion protein; Fc-TPP1 protein; not shown: Antibody heavy-chain constant region Fc (hinge-CH2-CH3)
